Laboratory results reported in patent US7563582B2, “Process for screening chemical compounds for modulating the interaction of an EVH1 domain and a process for detecting said interaction” (sanofi-aventis Deutschland GmbH, priority 2000, dated 2009).

Experiments:
VASP/ActA interaction = VASP/ActA interaction (Homo sapiens, UniProt P50552); details: peptides with mutations in the FPPPP motif; cited from earlier work
VASP/zyxin interaction = target: T1, VASP/zyxin interaction (Homo sapiens, UniProt P50552); experiment: VASP-zyxin solid-phase (DELFIA) assay, competition with peptides; type: binding; details: competing zyxin peptides, FIG. 2
T1 construct: made in house; host or cells: VASP: insect cells (baculovirus); GST-zyxin(1-142): E. coli, given only for the homogeneous assay
Procedure: In the solid-phase assay, a binding partner (VASP or zyxin) was immobilized on the surface of a microtiter plate (MTP) (=coating). The unsaturated binding sites on the surface of the plastic were blocked, and the surface was then incubated with the respective other binding partners. After the incubation, excess unattached protein was removed in a washing step. Using suitable antibodies, it was now possible to detect and quantify the specifically bound protein. Here, it was possible to improve the signal-noise (S/N) ratio considerably by using lanthanide chelates as fluorescent labels for the antibodies and the measurement of the time-resolved fluorescence.
For the solid-phase assay, the best coating and incubation conditions were characterized. […] For detecting VASP specifically bound to the immobilized zyxin, it was possible to use monoclonal antibodies against VASP which can be detected using lanthanide-labeled antibodies against mouse IgGs (Wallac: DELFIA anti-mouse-Eu(N1)).
The current assay protocol comprised 5 incubation steps and 3 washing steps: • 1. Incubation of the empty MTPs with GST-zyxin(1-142) (coating); • 2. Blocking with BSA (bovine serum albumin); • 3. Washing with PBS (wash buffer); • 4. Incubation with VASP (ligand) (with and without test substances); • 5. Washing with PBS; • 6. Incubation with detection mix: α-VASP (monoclonal anti-VASP antibody)+α-mouse-Eu (europium-labeled anti-mouse antibodies from Wallac); • 7. Washing with DELFIA wash solution; and • 8. Release of the bound lanthanide complex and fluorimetric measurement.
The optimum conditions for coating (GST-zyxin(1-142)) and ligand incubation (VASP) were determined by titrating the reagents. […] The volume per well used depended on the selected MTP format (50 μl or 100 μl for 96-well plates, 20 μl for 384-well plates).
Thus far, there are no known non-peptidergic inhibitors of the VASP/zyxin interaction To simulate the action of potential inhibitors, inhibition experiments were carried out using competing peptides which contained the VASP binding motif of zyxin (FPPPP (SEQ. ID. NO. 1)). […]

T1 sequence (P50552 whole entry): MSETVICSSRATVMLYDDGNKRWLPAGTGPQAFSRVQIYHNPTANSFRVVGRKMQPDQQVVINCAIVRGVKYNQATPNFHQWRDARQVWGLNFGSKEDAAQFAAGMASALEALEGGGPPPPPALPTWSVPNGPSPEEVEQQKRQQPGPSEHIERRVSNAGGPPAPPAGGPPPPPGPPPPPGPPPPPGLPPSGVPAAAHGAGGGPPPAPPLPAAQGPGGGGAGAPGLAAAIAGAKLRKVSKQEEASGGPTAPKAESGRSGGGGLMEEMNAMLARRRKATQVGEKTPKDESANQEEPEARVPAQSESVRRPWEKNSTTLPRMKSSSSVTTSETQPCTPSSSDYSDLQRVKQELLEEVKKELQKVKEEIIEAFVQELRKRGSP
Chain of VASP/ActA interaction (P50552 whole entry, species assumed): as the sequence (P50552 whole entry) above

Substance	inhibition of the VASP/ActA interaction (relative to wild type sequence FPPPP) (VASP/ActA interaction)	apparent inhibition constants of the peptides (rank order of inhibition) (VASP/zyxin interaction)
APPPP: competing zyxin peptide containing the mutated VASP binding motif APPPP	considerably worse inhibition	WPPPP (SEQ. ID. NO. 2)>FPPPP (SEQ. ID. NO. 1)>APPPP (SEQ. ID. NO. 3)
FPPPP: competing peptide containing the wild type VASP binding motif of zyxin, FPPPP	WPPPP (SEQ. ID. NO. 2)>FPPPP (SEQ. ID. NO. 1)>APPPP (SEQ. ID. NO. 3)	WPPPP (SEQ. ID. NO. 2)>FPPPP (SEQ. ID. NO. 1)>APPPP (SEQ. ID. NO. 3)
WPPPP: competing zyxin peptide containing the mutated VASP binding motif WPPPP	even better inhibition	WPPPP (SEQ. ID. NO. 2)>FPPPP (SEQ. ID. NO. 1)>APPPP (SEQ. ID. NO. 3)
